This note sets out measurements from paper PMC7077807.

In this test the target is Synaptotagmin II, P29101. Put plainly: BLI. Background: BLI is a label-free optical method that tracks binding on a fibre tip over time.

As usually defined, the Kd is the concentration at which binding is half-saturated. Low readings indicate tighter binding, high ones weaker binding.

Sequence of Synaptotagmin II, P29101 (P29101 40-60): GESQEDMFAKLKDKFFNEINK

B1: BoNT/B HC HC, P10844 (protein)
chain: SEILNNIILNLRYKDNNLIDLSGYGAKVEVYDGVELNDKNQFKLTSSANSKIRVTQNQNIIFNSVFLDFSVSFWIRIPKYKNDGIQNYIHNEYTIINCMKNNSGWKISIRGNRIIWTLIDINGKTKSVFFEYNIREDISEYINRWFFVTITNNLNNAKIYINGKLESNTDIKDIREVIANGEIIFKLDGDIDRTQFIWMKYFSIFNTELSQSNIEERYKIQSYSEYLKDFWGNPLMYNKEYYMFNAGNKNSYIKLKKDSPVGEILTRSKYNQNSKYINYRDLYIGEKFIIRRKSNSQSINDDIVRKEDYIYLDFFNLNQEWRVYTYKYFKKEEEKLFLAPISDSDEFYNTIQIKEYDEQPTYSCQLLFKKDEESTDEIGLIGIHRFYESGIVFEEYKDYFCISKWYLKEVKRKPYNLKLGCNWQFIPKDEGWTE
For the molecule B1, the Kd came out at 51 µM.
